Results reported in patent US20200078399A1 (LEGEND BIOTECH USA, published 2020).

Legend:
Assay in all cases: cell-based or functional assay
[1] = target: human BCMA (B cell mature antigen, CD269, TNFRSF17) on cells (human) (UniProt Q02223)
[2] = target: T1, CD38 on K562.CD38.Luc cells (UniProt P28907 1-300, limits assumed)
T1 sequence (looked up): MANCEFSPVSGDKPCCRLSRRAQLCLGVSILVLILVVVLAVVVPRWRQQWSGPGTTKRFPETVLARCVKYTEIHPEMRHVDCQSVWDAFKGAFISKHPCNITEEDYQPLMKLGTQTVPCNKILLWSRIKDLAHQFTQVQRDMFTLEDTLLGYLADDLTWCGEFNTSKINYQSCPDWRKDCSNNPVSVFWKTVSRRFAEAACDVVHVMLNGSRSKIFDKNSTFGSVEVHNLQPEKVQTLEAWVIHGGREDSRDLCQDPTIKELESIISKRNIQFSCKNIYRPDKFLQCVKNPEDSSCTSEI

[3] = target: T2, human BCMA (B cell mature antigen, CD269, TNFRSF17) on cells (human, UniProt Q02223 1-184)
T2 sequence: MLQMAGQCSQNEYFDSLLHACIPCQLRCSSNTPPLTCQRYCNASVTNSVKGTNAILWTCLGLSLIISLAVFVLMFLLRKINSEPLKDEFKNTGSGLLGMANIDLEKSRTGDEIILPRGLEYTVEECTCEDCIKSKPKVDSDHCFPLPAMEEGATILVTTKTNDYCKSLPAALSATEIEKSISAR

**Q.** How did the percentage of remaining viable RPMI8226.Luc cells (remaining luciferase activity), CAR-T from patient A, E/T 5:1, 20 hours [1] turn out when LCAR-B27S CAR was run?
**A.** Its percentage of remaining viable RPMI8226.Luc cells (remaining luciferase activity), CAR-T from patient A, E/T 5:1, 20 hours is 68.6%.

**Q.** What about the percentage of remaining viable RPMI8226.Luc cells (remaining luciferase activity), CAR-T from patient A, E/T 20:1, 20 hours [1] of the same molecule?
**A.** Its percentage of remaining viable RPMI8226.Luc cells (remaining luciferase activity), CAR-T from patient A, E/T 20:1, 20 hours is 3.17%.

**Q.** What about the percentage of remaining viable RPMI8226.Luc cells (remaining luciferase activity), CAR-T from patient B, E/T 5:1, 20 hours [1] of the same molecule?
**A.** The percentage of remaining viable RPMI8226.Luc cells (remaining luciferase activity), CAR-T from patient B, E/T 5:1, 20 hours was 84%.

**Q.** What about the percentage of remaining viable RPMI8226.Luc cells (remaining luciferase activity), CAR-T from patient B, E/T 20:1, 20 hours [1] of the same molecule?
**A.** The percentage of remaining viable RPMI8226.Luc cells (remaining luciferase activity), CAR-T from patient B, E/T 20:1, 20 hours was 9.32%.

**Q.** And the percentage of remaining viable RPMI8226.Luc cells (remaining luciferase activity), CAR-T from patient C, E/T 5:1, 20 hours [1]?
**A.** Its percentage of remaining viable RPMI8226.Luc cells (remaining luciferase activity), CAR-T from patient C, E/T 5:1, 20 hours is 101%.

**Q.** What about the percentage of remaining viable RPMI8226.Luc cells (remaining luciferase activity), CAR-T from patient C, E/T 20:1, 20 hours [1] of the same molecule?
**A.** Its percentage of remaining viable RPMI8226.Luc cells (remaining luciferase activity), CAR-T from patient C, E/T 20:1, 20 hours is 10.1%.

**Q.** How did the percentage of remaining viable RPMI8226.Luc cells (remaining luciferase activity), CAR-T from patient A, E/T 5:1, 20 hours [1] turn out when LCAR-B38M CAR was run?
**A.** Its percentage of remaining viable RPMI8226.Luc cells (remaining luciferase activity), CAR-T from patient A, E/T 5:1, 20 hours is 33.4%.

**Q.** What about the percentage of remaining viable RPMI8226.Luc cells (remaining luciferase activity), CAR-T from patient A, E/T 20:1, 20 hours [1] of the same molecule?
**A.** The percentage of remaining viable RPMI8226.Luc cells (remaining luciferase activity), CAR-T from patient A, E/T 20:1, 20 hours was 3.97%.

**Q.** And the percentage of remaining viable RPMI8226.Luc cells (remaining luciferase activity), CAR-T from patient B, E/T 5:1, 20 hours [1]?
**A.** The percentage of remaining viable RPMI8226.Luc cells (remaining luciferase activity), CAR-T from patient B, E/T 5:1, 20 hours was 40.9%.

**Q.** And the percentage of remaining viable RPMI8226.Luc cells (remaining luciferase activity), CAR-T from patient B, E/T 20:1, 20 hours [1]?
**A.** Its percentage of remaining viable RPMI8226.Luc cells (remaining luciferase activity), CAR-T from patient B, E/T 20:1, 20 hours is 4.45%.

**Q.** What about the percentage of remaining viable RPMI8226.Luc cells (remaining luciferase activity), CAR-T from patient C, E/T 5:1, 20 hours [1] of the same molecule?
**A.** The percentage of remaining viable RPMI8226.Luc cells (remaining luciferase activity), CAR-T from patient C, E/T 5:1, 20 hours was 30%.

**Q.** What about the percentage of remaining viable RPMI8226.Luc cells (remaining luciferase activity), CAR-T from patient C, E/T 20:1, 20 hours [1] of the same molecule?
**A.** Its percentage of remaining viable RPMI8226.Luc cells (remaining luciferase activity), CAR-T from patient C, E/T 20:1, 20 hours is 2.56%.

B1: BCAR001 (other)
chain: QVKLEESGGGLVQAGRSLRLSCAASEHTFSSHVMGWFRQAPGKERESVAVIGWRDISTSYADSVKGRFTISRDNAKKTLYLQMNSLKPEDTAVYYCAARRIDAADFDSWGQGTQVTVSSGGGGSAVQLVESGGGLVQAGDSLRLTCTASGRAFSTYFMAWFRQAPGKEREFVAGIAWSGGSTAYADSVKGRFTISRDNAKNTVYLQMNSLKSEDTAVYYCASRGIEVEEFGAWGQGTQVTVSSTSTTTPAPRPPTPAPTIASQPLSLRPEACRPAAGGAVHTRGLDFACDIYIWAPLAGTCGVLLLSLVITLYCKRGRKKLLYIFKQPFMRPVQTTQEEDGCSCRFPEEEEGGCELRVKFSRSADAPAYQQGQNQLYNELNLGRREEYDVLDKRRGRDPEMGGKPRRKNPQEGLYNELQKDKMAEAYSEIGMKGERRRGKGHDGLYQGLSTATKDTYDALHMQALPPR
**Q.** Which results are given for B1?
**A.** IFN gamma release in co-culture with K562.CD38.Luc (BCMA negative control; UnT 85.65 pg/ml), mean [2]: 136 pg/mL; IFN gamma release in co-culture with RPMI8226.Luc, mean [3]: 1100 pg/mL; IFN gamma release in co-culture with Raji.Luc, mean [3]: 796 pg/mL
